Reference: patent US20180037644A1 (Pfizer, published 2018)
Where two headings read alike, the source gives them in different places.

How the values were obtained:
human IL-33 (mm2) [1] = molecular target: T1, human IL-33 (mm2) (human, UniProt O95760 112-270); test: cell-based or functional assay
T1 chain: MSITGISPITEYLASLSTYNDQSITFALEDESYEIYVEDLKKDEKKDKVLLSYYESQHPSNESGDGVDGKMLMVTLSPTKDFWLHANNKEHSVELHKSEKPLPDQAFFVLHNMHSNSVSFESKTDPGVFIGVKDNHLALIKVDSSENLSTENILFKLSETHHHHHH

human IL-33 (mm2) [2] = molecular target: T1, human IL-33 (mm2); test: cell-based or functional assay
human IL-33 (mm2) [3] = molecular target: T1, human IL-33 (mm2); test: cell-based or functional assay
human IL-33 (mm2) [4] = molecular target: T1, human IL-33 (mm2); test: BIAcore, IgG captured by anti-human Fc, 125 nM IL-33 (mm2)
Protocol: Binding to human and cynomolgus monkey IL-33 was measured by surface plasmon resonance using a BIAcore T200 instrument. An anti-human Fc antibody was immobilized on a CM5 chip, and anti-IL-33 antibodies were captured.

human IL-33 (mm2) [5] = molecular target: T1, human IL-33 (mm2); test: cell-based or functional assay

B1: IL33-57 (antibody, human IgG1, kappa, V domains shown)
VH: EVQLVESGGGLVQPGGSLRLSCAASGFTFSSYWMYWVRQAPGKGLEWVASITPNGGNTYYPDSVKGRFTISRDNAKNSLYLQMNSLRAEDTAVYYCARGHYYYTDYSLGYWGQGTLVTVSS
VL: DIQMTQSPSSLSASVGDRVTITCKASQNINKHLDWYQQKPGKAPKLLIYFTNNLQTGVPSRFSGSGSGTDFTLTISSLQPEDFATYYCFQYNNGWTFGGGTKVEIKR
With B1 the “IC50, HEK293 ST2 NFkB” value (human IL-33 (mm2) [1]) was 310 pM.

B2: IL33-80 (antibody, human IgG1, kappa, V domains shown)
VH: EVQLVESGGGLVQPGGSLRLSCAASGFTFSSYWMYWVRQAPGKGLEWVASITPNGGNTYYPDSVKGRFTISRDNAKNSLYLQMNSLRAEDTAVYYCARGHYYYTSYSLGYWGQGTLVTVSS
VL: DIQMTQSPSSLSASVGDRVTITCKASQNINKHLDWYQQKPGKAPKLLIYFTNNLQDGVPSRFSGSGSGTDFTLTISSLQPEDFATYYCFQYNNGWTFGGGTKVEIKR
For B2, the “IC50, HEK293 ST2 NFkB” value (human IL-33 (mm2) [1]) was 161 pM.

B3: IL33-81 (antibody, human IgG1, kappa, V domains shown)
VH: EVQLVESGGGLVQPGGSLRLSCAASGFTFSSYWMYWVRQAPGKGLEWVASITPNGGNTYYPDSVKGRFTISRDNAKNSLYLQMNSLRAEDTAVYYCARGHYYYTSYSLGYWGQGTLVTVSS
VL: DIQMTQSPSSLSASVGDRVTITCKASQNINKHLDWYQQKPGKAPKLLIYFTNNLQEGVPSRFSGSGSGTDFTLTISSLQPEDFATYYCFQYNNGWTFGGGTKVEIKR
In the case of B3, the “IC50, HEK293 ST2 NFkB” value (human IL-33 (mm2) [1]) is reported as 168 pM.

B4: IL33-62 (antibody, human IgG1, kappa, V domains shown)
VH: EVQLVESGGGLVQPGGSLRLSCAASGFTFSSYWMYWVRQAPGKGLEWVASITPNGGDTYYPDSVKGRFTISRDNAKNSLYLQMNSLRAEDTAVYYCARGHYYYTDYSLGYWGQGTLVTVSS
VL: DIQMTQSPSSLSASVGDRVTITCKASQNINKHLDWYQQKPGKAPKLLIYFTNNLQTGVPSRFSGSGSGTDFTLTISSLQPEDFATYYCFQYNNGWTFGGGTKVEIKR
For B4, the “IC50, HEK293 ST2 NFkB” value (human IL-33 (mm2) [1]) was 885 pM.

B5: IL33-61 (antibody, human IgG1, kappa, V domains shown)
VH: EVQLVESGGGLVQPGGSLRLSCAASGFTFSSYWMYWVRQAPGKGLEWVASITPNGGETYYPDSVKGRFTISRDNAKNSLYLQMNSLRAEDTAVYYCARGHYYYTDYSLGYWGQGTLVTVSS
VL: DIQMTQSPSSLSASVGDRVTITCKASQNINKHLDWYQQKPGKAPKLLIYFTNNLQTGVPSRFSGSGSGTDFTLTISSLQPEDFATYYCFQYNNGWTFGGGTKVEIKR
For B5, the “IC50, HEK293 ST2 NFkB” value (human IL-33 (mm2) [1]) was 595 pM.

B6: IL33-74 (antibody, human IgG1, kappa, V domains shown)
VH: EVQLVESGGGLVQPGGSLRLSCAASGFTFSSYWMYWVRQAPGKGLEWVASITPNGGNTYYPDSVKGRFTISRDNAKNSLYLQMNSLRAEDTAVYYCARGHYYYTSYSLGYWGQGTLVTVSS
VL: DIQMTQSPSSLSASVGDRVTITCKASQNINDHLDWYQQKPGKAPKLLIYFTNNLQTGVPSRFSGSGSGTDFTLTISSLQPEDFATYYCFQYNNGWTFGGGTKVEIKR
B6 was tested, and the “IC50, HEK293 ST2 NFkB” value (human IL-33 (mm2) [1]) was 174 pM.

B7: IL33-75 (antibody, human IgG1, kappa, V domains shown)
VH: EVQLVESGGGLVQPGGSLRLSCAASGFTFSSYWMYWVRQAPGKGLEWVASITPNGGNTYYPDSVKGRFTISRDNAKNSLYLQMNSLRAEDTAVYYCARGHYYYTSYSLGYWGQGTLVTVSS
VL: DIQMTQSPSSLSASVGDRVTITCKASQNIDKHLDWYQQKPGKAPKLLIYFTNNLQTGVPSRFSGSGSGTDFTLTISSLQPEDFATYYCFQYNNGWTFGGGTKVEIKR
In the case of B7, the “IC50, HEK293 ST2 NFkB” value (human IL-33 (mm2) [1]) is reported as 156 pM.

B8: IL33-58 (antibody, human IgG1, kappa, V domains shown)
VH: EVQLVESGGGLVQPGGSLRLSCAASGFTFSSYWMYWVRQAPGKGLEWVASITPLGGNTYYPDSVKGRFTISRDNAKNSLYLQMNSLRAEDTAVYYCARGHYYYTSYSLGYWGQGTLVTVSS
VL: DIQMTQSPSSLSASVGDRVTITCKASQNINKHLDWYQQKPGKAPKLLIYFTNNLQTGVPSRFSGSGSGTDFTLTISSLQPEDFATYYCFQYNNGWTFGGGTKVEIKR
For B8, the “IC50, HEK293 ST2 NFkB” value (human IL-33 (mm2) [1]) was 27 pM.

B9: 30A1 chimera (antibody, human IgG1, kappa)
heavy: QVNLLQSGATLVKPGASMKMSCKASGYSFTDYWVSWVKQSHGKSLEWIGEIYPNSGANNFNKEFKDKATLTVDKSTSTAYMELTRLTSEDSAVYYCTRGPYYYSSQIIFAYWGQGTLVTVSSASTKGPSVFPLAPSSKSTSGGTAALGCLVKDYFPEPVTVSWNSGALTSGVHTFPAVLQSSGLYSLSSVVTVPSSSLGTQTYICNVNHKPSNTKVDKKVEPKSCDKTHTCPPCPAPEAAGAPSVFLFPPKPKDTLMISRTPEVTCVVVDVSHEDPEVKFNWYVDGVEVHNAKTKPREEQYNSTYRVVSVLTVLHQDWLNGKEYKCKVSNKALPAPIEKTISKAKGQPREPQVYTLPPSREEMTKNQVSLTCLVKGFYPSDIAVEWESNGQPENNYKTTPPVLDSDGSFFLYSKLTVDKSRWQQGNVFSCSVMHEALHNHYTQKSLSLSPGK
light: IIVMTQSPKSMSISVGDRVTMNCKASQNVGNNIAWYRQKPGQSPELLIYYASNRYTGVPDRFTGGGYGTDFTLTINSVQAEDAAFYYCQRIYNSPPTFGGGTKVELKRTVAAPSVFIFPPSDEQLKSGTASVVCLLNNFYPREAKVQWKVDNALQSGNSQESVTEQDSKDSTYSLSSTLTLSKADYEKHKVYACEVTHQGLSSPVTKSFNRGEC
B9 was tested, and the “IC50, HEK293 ST2 NFkB” value (human IL-33 (mm2) [2]) was 270 pM.

B10: 7E8 chimera (antibody, human IgG1, kappa, V domains shown)
VH: EVQLVETGGGLVQPGRSLKLSCKTSGFTFSSYWMYWIRQAPGKGLEWVSSITPNGGNTYYPDSVKGRFTISRDNAENTIYLQMSSLRSEDTATYFCAKGHYYYTSYSLGYWGQGSLVTVSS
VL: EIQMTQSPSVLSASVGDRVTLSCKASQNINKHLDWYQQKLGEAPKLLIYFTNNLQTGIPSRFSGSGSGTDCTLTINSLQPGDVATYFCFQYNNGWTFGGGTKLELDR
In the case of B10, the “IC50, HEK293 ST2 NFkB” value (human IL-33 (mm2) [2]) is reported as 49 pM.

B11: 7E8H/9B3K (antibody, human IgG1, kappa, V domains shown)
VH: EVQLVETGGGLVQPGRSLKLSCKTSGFTFSSYWMYWIRQAPGKGLEWVSSITPNGGNTYYPDSVKGRFTISRDNAENTIYLQMSSLRSEDTATYFCAKGHYYYTSYSLGYWGQGSLVTVSS
VL: DIQMTQSPSVLSASVGDRVTLSCKASHNINKHLDWYQQKVGEAPKLLIYFTNNLQTGIPSRFSGSGSGTDYTLTISSLQPEDVATYFCFQYNSGWTFGQGTKVEIKR
For B11, the “estimated IC50, HEK293 ST2 NFkB” value (human IL-33 (mm2) [3]) was 15 pM and the koff (human IL-33 (mm2) [4]) was 0.000385 s⁻¹.

B12: 9B3 chimera/hu J (antibody, human IgG1, kappa)
heavy: EVQLVETGGGLVQPGRSLKLSCVASGFTFSNYWMYWIRQAPGMGLEWVSSINNDGGNTYYLDSVKGRFTISRNNAENTVYLQMNSLRSEDTATYYCAKGHYSYSSYSFSYWGQGTLVTVSSASTKGPSVFPLAPSSKSTSGGTAALGCLVKDYFPEPVTVSWNSGALTSGVHTFPAVLQSSGLYSLSSVVTVPSSSLGTQTYICNVNHKPSNTKVDKKVEPKSCDKTHTCPPCPAPEAAGAPSVFLFPPKPKDTLMISRTPEVTCVVVDVSHEDPEVKFNWYVDGVEVHNAKTKPREEQYNSTYRVVSVLTVLHQDWLNGKEYKCKVSNKALPAPIEKTISKAKGQPREPQVYTLPPSREEMTKNQVSLTCLVKGFYPSDIAVEWESNGQPENNYKTTPPVLDSDGSFFLYSKLTVDKSRWQQGNVFSCSVMHEALHNHYTQKSLSLSPGK
light: DIQMTQSPSVLSASVGDRVTLSCKASHNINKHLDWCQQKVGEAPKLLIYFTNNLQTGIPSRFSGSGSGTDYTLTISSLQPEDVATYFCFQYNSGWTFGQGTKVEIKRTVAAPSVFIFPPSDEQLKSGTASVVCLLNNFYPREAKVQWKVDNALQSGNSQESVTEQDSKDSTYSLSSTLTLSKADYEKHKVYACEVTHQGLSSPVTKSFNRGEC
notes: also called 9B3 chimera huJseg
With B12 the “IC50, HEK293 ST2 NFkB” value (human IL-33 (mm2) [5]) was 264 pM, the “estimated IC50, HEK293 ST2 NFkB” value (human IL-33 (mm2) [3]) was 61 pM and the koff (human IL-33 (mm2) [4]) was 0.000451 s⁻¹. The “IC50, HEK293 ST2 NFkB” value (human IL-33 (mm2) [2]) was 56 pM.

B13: 9B3-162 (antibody, human IgG1, kappa, V domains shown)
VH: EVQLVETGGGLVQPGRSLKLSCVASGFTFSNYWMYWIRQAPGMGLEWVSSINNDGGNTYYLDSVKGRFTISRNNAENTVYLQMNSLRSEDTATYYCAKGHYYYSSYSFGYWGQGTLVTVSS
VL: DIQMTQSPSVLSASVGDRVTLSCKASHNINKHLDWYQQKVGEAPKLLIYFTNNLQTGIPSRFSGSGSGTDYTLTISSLQPEDVATYFCFQYNSGWTFGQGTKVEIKR
B13 was tested, and the “estimated IC50, HEK293 ST2 NFkB” value (human IL-33 (mm2) [3]) was 67 pM and the koff (human IL-33 (mm2) [4]) was 0.000642 s⁻¹.
